Measured values: publication PMC13483476

Key:
[1] = target: JR-FL.v6 V3 peptide (HIV-1 clade B isolate JR-FL); assay: SPR
[2] = target: JR-FL.v6 V3 peptide (HIV-1 clade B isolate JR-FL); assay: differential scanning fluorimetry

19b antigen-binding fragment (Fab)
Kd [1]: 1.74 nM | increase of the transition temperature of the Fab when bound to the peptide [2]: 6.3 °C
